Source: patent US20210008108A1 (ETABLISSEMENT FRANCAIS DU SANG, published 2021)

Molecular target: T1, recombinant fusion protein consisting of the extra cellular part of IL-1RAP and the Fc-part of human IgG1 … (human, UniProt Q9NPH3 21-367)
T1 construct: extracellular domain; also called IL-1RAP recombinant protein; recombinant IL-1RAP protein; not shown: Fc-part of human IgG1
T1 sequence (looked up): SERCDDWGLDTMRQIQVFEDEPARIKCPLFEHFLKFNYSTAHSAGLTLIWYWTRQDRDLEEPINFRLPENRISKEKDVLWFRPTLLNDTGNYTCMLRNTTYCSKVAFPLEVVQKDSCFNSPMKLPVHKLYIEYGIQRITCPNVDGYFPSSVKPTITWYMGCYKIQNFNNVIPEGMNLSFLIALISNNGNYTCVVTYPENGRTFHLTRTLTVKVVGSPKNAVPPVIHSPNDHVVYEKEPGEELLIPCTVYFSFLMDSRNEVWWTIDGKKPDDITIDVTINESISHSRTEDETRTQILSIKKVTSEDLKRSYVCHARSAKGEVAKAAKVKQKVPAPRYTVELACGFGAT
Test: ELISA, IL-1RAP protein captured by coated anti-human Fc, detected with anti-mouse Fc-HRP
Text: Anti-human Fc antibody was coated on a bottom of a plastic ELISA plate.

binding result: binds
B1: mouse anti-hIL-1RAP monoclonal antibody clone #E3C3 (antibody, V domains shown)
VH: QVQLQQPGAELMMPGASVKVSCEASGYTFTDSWMHWVKQRPGQGLEWIGAIDPSDSYTTYNQKFTGKATLSVDESSNTAYMQLSSLTSEDSAVYYCARYYSGSNYISPFPYWGQGTLVTVSA
VL: DIVMTQSHKFMSTSVGDRVTITCKASLDVSTAVAWYQQKPGQSPKLLIYSASYRYTGVPDRFTGSGSGTDFTFTISSVQAEDLAVYYCQQHYSPPFTFGSGTNLEIK
notes: Murine hybridoma antibody; It was Alexa Fluor 488 labelled in some flow cytometry; also called #A3C3; #E3C3 mAb
